Test results taken from the supplement of paper PMC12764529.
± gives the half width of the 95% confidence interval.

What was measured:
[1] = folding stability dG unfold from chymotrypsin proteolysis; higher = more stable
Procedure, shortened: (§1)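 Sequencing followed digestion of designed mini-proteins with trypsin and chymotrypsin, each at 11 concentrations in threefold dilutions together with a no-protease condition. The mini-proteins were under 80 residues, had no cysteine, sat in a PA-tagged cDNA display construct, and were kept only if AlphaFold2 dimer inter-PAE was above 15. From the counts, Bayesian fitting gave K50, and unfolding free energy was derived against a sequence-predicted unfolded-state K50 and a shared folded-state K50, per protease or combined.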

[2] = folding stability dG unfold from trypsin proteolysis; higher = more stable
Procedure, shortened: as §1

[3] = folding stability dG unfold (combined trypsin and chymotrypsin); higher = more stable
Procedure, shortened: as §1

| Sequence | folding stability dG unfold [1] | folding stability dG unfold [2] | folding stability dG unfold [3] |
| --- | --- | --- | --- |
| SAGGSSIKIPNPNGYEIEIEVTPDRAKIKWRMPGKEQEQEFPPGEDVTIRFPDGMPLTIKIPPPGESAGGSA [r2_57_TrROS] | 0.154 ± 0.26 kcal/mol | 0.456 ± 0.089 kcal/mol | 0.424 ± 0.13 kcal/mol |
| SAGGSSKTEIYYNPKKPYFLIKVTYKNGKTKEYPIKGKGMSLEELKKKAEEIVKELNSEEFKEVVFNPSAGG [r13_267_TrMRF] | 2.5 ± 0.082 kcal/mol | 2.02 ± 0.12 kcal/mol | 2.53 ± 0.14 kcal/mol |
| SAGGSSMKTSETTDPANGTPVRVETSIDPATNKVTTTVTTPDGTTVGSGTITIPPESSVTTTTTTTTPASAG [r5_747_JUSTAS] | 1.49 ± 0.091 kcal/mol | 0.793 ± 0.079 kcal/mol | 1.21 ± 0.11 kcal/mol |
| SAGGSSMRKLIIIGPEGVTLERPIGPERTVEDVKAEWEAIGNVKFEEYPETGEVVVYLPEEALKEKSAGGSA [r2_164_JUSTAS] | 1.47 ± 0.029 kcal/mol | 0.601 ± 0.054 kcal/mol | 1.22 ± 0.08 kcal/mol |
| SAGGSSPPGVKVEVTVEVTYIPSKGGYKLTFYRPGGEKVDTKELEKDKLEEAKEELKAKGFDVVKIKKSAGG [r13_765_JUSTAS] | 0.882 ± 0.18 kcal/mol | -0.402 ± 0.41 kcal/mol | 0.347 ± 0.21 kcal/mol |
| SAGGSSSMVTRTPSTSTVTVKRGNGPVTVSLPTTVVTRPDGSRTLETTVDTKDPAGNPAATTVTPAPSAGGS [r16_581_JUSTAS] | 0.98 ± 0.048 kcal/mol | 0.0362 ± 0.1 kcal/mol | 0.643 ± 0.093 kcal/mol |
| SAGGSSSSTSTRIDPTTGEWVTSTSSFPVPPAPPYIEVRLDVPPEEAEALREKLLAEHPDLPVRLEASAGGS [r8_437_JUSTAS] | 0.74 ± 0.029 kcal/mol | 0.336 ± 0.023 kcal/mol | 0.636 ± 0.072 kcal/mol |
| SAGGSSSTPVSSSTFTTPDGVTVSVTTTLEPDASGNPYTVTTETFPDGTVTTTTYRNGETQTTTVASAGGSA [r2_182_JUSTAS] | 1.33 ± 0.11 kcal/mol | 1.28 ± 0.041 kcal/mol | 1.34 ± 0.088 kcal/mol |
| SAGGSSSVGVDSSDPEKTKEAILKAYGTDAEPVFTTDPATGRLTITVPETGDVHTVTAGTRTETAASAGGSA [r2_205_JUSTAS] | 0.224 ± 0.068 kcal/mol | 1.27 ± 0.042 kcal/mol | 0.801 ± 0.085 kcal/mol |
| SAGGSSVSSVTLLSSETYTEGEKTFKRTTYLVPLPDGTTAIVTTEETTPPENPPEVEVSSSTTPLPGSAGGS [r16_121_JUSTAS] | 1.78 ± 0.093 kcal/mol | 1.25 ± 0.044 kcal/mol | 1.63 ± 0.086 kcal/mol |
| SAGGSTTVTIETYESEKFPNGSFKTSTKKIVITNTLSPDEELTLPNGKKIPASLSAEEIAEAILKSESAGGS [r16_440_JUSTAS] | 0.522 ± 0.11 kcal/mol | -0.849 ± 0.23 kcal/mol | 0.151 ± 0.098 kcal/mol |
| SAGGSTVKTITLEFTRDPSTGAITEAEAEIERLKNDPNWEVTDPTITPLPDGTVKVPAKVKIPSNANLSAGG [r13_428_JUSTAS] | 0.12 ± 0.27 kcal/mol | 0.116 ± 0.2 kcal/mol | 0.075 ± 0.23 kcal/mol |
| SAGGSTVTVTVRRRVRVEVNGELREFEVEVTVTVRLPPPPPVIELPPEQVTRIEWDEETQELRVEVDSAGGS [r8_28_TrROS_Hall] | 3.33 ± 0.063 kcal/mol | 2.98 ± 0.21 kcal/mol | 3.28 ± 0.21 kcal/mol |
| SAGGSVEFEETITDPLKSLEEAKALAEEIEAELKAKGYKVTVTVTVVPPGSVTATITVTTDPAKGKKASAGG [r13_697_JUSTAS] | 1.34 ± 0.072 kcal/mol | 0.822 ± 0.063 kcal/mol | 0.82 ± 0.22 kcal/mol |
| SAGGSVEKKLLEYDPATGNRLVEVTAKAKPEVVEELIAKGYDPSTISPLGDGTVRALLTIPPDEKLDSAGGS [r16_755_JUSTAS] | -0.332 ± 0.25 kcal/mol | -0.295 ± 0.25 kcal/mol | -0.248 ± 0.21 kcal/mol |
| SAGGSVEVEPLPNGLLRVTTVFSESKTPILRKLTYKDENGKPLGTKLELLPEEVEVESVTELLPPELLSAGG [r13_848_JUSTAS] | 0.606 ± 0.11 kcal/mol | -1.07 ± 0.29 kcal/mol | 0.256 ± 0.079 kcal/mol |
| SAGGSVITEEEKEKIKKEYPNLDIKLKALKPGETITYPNGTKVYGSPNGFLVEITNPDGTKTVIKESAGGSA [r2_166_JUSTAS] | 0.498 ± 0.16 kcal/mol | 0.638 ± 0.026 kcal/mol | 0.604 ± 0.11 kcal/mol |
| SAGGSVIVKLPNGKILEVSPSELAGYKPGAAVKFPDGTAQVVNPETDEVIDIPIDSPEKIIEAIKKAASAGG [r13_962_TrMRF] | 0.365 ± 0.077 kcal/mol | 0.0192 ± 0.1 kcal/mol | 0.163 ± 0.24 kcal/mol |
| SAGGSVVPLPLDETVELTFDGTTATFTALPDGTATATFTGPDSTARATFPPDGAVTVTVPGAGTTAASAGGS [r16_725_JUSTAS] | -0.268 ± 0.19 kcal/mol | -1.18 ± 0.62 kcal/mol | -0.404 ± 0.19 kcal/mol |
| SAGGSVVTIVEVVPEDKKIVIKAPGNPITIPLENIKEIKLIPEKGYLEITINNTTIKVPLNNPNSISAGGSA [r2_48_JUSTAS] | 1.09 ± 0.058 kcal/mol | 0.308 ± 0.051 kcal/mol | 0.779 ± 0.071 kcal/mol |
| SAGGSWLPPGMWIISISIKWEMREMTFSPNGQPEMEMRLEIDIQVIKIPPPPPPPKEDAKNPNGKWSAGGSA [r2_495_TrROS] | 2.22 ± 0.3 kcal/mol | 0.946 ± 0.15 kcal/mol | 1.66 ± 0.35 kcal/mol |

| Sequence | folding stability dG unfold [1] | folding stability dG unfold [2] | folding stability dG unfold [3] |
| --- | --- | --- | --- |
| SAGGSYTVEELPPGGILRITFTVPKSRPAEVPLELKAPDGTPVDVESYSITPVGDTNVITYTIKVPLSAGGS [r16_499_JUSTAS] | 1.81 ± 0.15 kcal/mol | 1.57 ± 0.049 kcal/mol | 1.85 ± 0.11 kcal/mol |
| SAGGTATLVIPRIYKGSPEEAARAVQEIADALAALGYDVEVDATVYPVGDYLVVTVTVTVTAPPDSPLASAG [r5_217_TrMRF] | 2.82 ± 0.046 kcal/mol | 2.62 ± 0.099 kcal/mol | 2.63 ± 0.15 kcal/mol |
| SAGGTIIINFTWSDIKDILDYLKDNKDWKITIWMGNKPVEYPLDDLEEILQNIPMPPGQPFWIEITPSAGGS [r16_377_TrROS] | 4.32 ± 0.14 kcal/mol | 3.38 ± 0.26 kcal/mol | 4.36 ± 0.17 kcal/mol |
| SAGGTLEEFARDLAKELAKENGGKNVPFEIEIPVKMEWYPSPDGDPEPIMTHPMRIRIQFQIPPGQPSAGGS [r16_156_TrROS] | 1.53 ± 0.14 kcal/mol | 0.389 ± 0.11 kcal/mol | 1.08 ± 0.15 kcal/mol |
| SAGGTLRNMPVEQIAKRLQNHGYEIKVENIRHNEDRVRIKIEVERRNKNGKPHEEVKISIEIPDPDDFSAGG [r13_566_TrROS] | 0.403 ± 0.15 kcal/mol | 0.461 ± 0.23 kcal/mol | 0.559 ± 0.27 kcal/mol |
| SAGGTLTLLVEVDGLLVRVTAEVRLVYDPETDELTLEVRVRVEVRPLPAPPPPLVVVRDADGRLRLLSAGGS [r8_46_TrROS_Hall] | 2.71 ± 0.042 kcal/mol | 1.03 ± 0.095 kcal/mol | 2.22 ± 0.08 kcal/mol |
| SAGGTMTIEAWVKYKDMTPEEMREQAKEIAENIMNMMRQRGFPIKKIEVDVEQDPGNGWVQVTIEIEFSAGG [r13_212_TrROS] | 4.62 ± 0.13 kcal/mol | 3.45 ± 0.15 kcal/mol | 4.24 ± 0.18 kcal/mol |
| SAGGTPVVVPATITVPVPFGAPARVTIFTPEDGHVLALIELPDGAVLVATFDPTTGELHVAPYADAASAGGS [r16_735_TrMRF] | 2.78 ± 0.06 kcal/mol | 1.19 ± 0.061 kcal/mol | 2.23 ± 0.14 kcal/mol |
| SAGGTVTIFIPGMSLDQIKKFIKFFRDNPDRPVTIHMPNGYMIEIDPKGKIDNIKVRRMPPMPEDDQSAGGS [r16_248_TrROS] | 2.93 ± 0.046 kcal/mol | 1.52 ± 0.036 kcal/mol | 2.53 ± 0.12 kcal/mol |
| SAGGVEEAREALEEAGFEIVDVDEETGTVTVRNEETEETITVRVEAPAPPPVEVEEEVEVEEEEEEESAGGS [r16_197_TrROS_Hall] | 1.48 ± 0.12 kcal/mol | 1.14 ± 0.089 kcal/mol | 1.34 ± 0.096 kcal/mol |
| SAGGVEEIVEKLPEEAEEVEITSEPHPLPGSTLTKYTIKAKNSATGKTKTYEVTVLYDPEGNVLEVLLSAGG [r13_358_JUSTAS] | 2.74 ± 0.082 kcal/mol | 1.7 ± 0.061 kcal/mol | 2.22 ± 0.19 kcal/mol |
| SAGGVITIRIPGIDNRNPETMRSKAVEIADRLRDHGVTVTDVEWDPDQGSMTITVMLPGQSLEDILKSAGGS [r8_344_TrROS] | 2.69 ± 0.051 kcal/mol | 1.89 ± 0.062 kcal/mol | 2.42 ± 0.084 kcal/mol |
| SAGGVLLEFPDGTTVEITVTTSTSTFKDPTTDKTVTKSSTTITVTRKTPDPVVTPVPASEAQRIFDSTSAGG [r13_809_JUSTAS] | 2.96 ± 0.2 kcal/mol | 2.13 ± 0.079 kcal/mol | 2.47 ± 0.21 kcal/mol |
| SAGGVLTRVEIEIVEPGTGVPKRFEALLETGDDGTITLLLPDGTVIELPPTANIKILSEEVLSPSELSAGGS [r16_223_JUSTAS] | 0.0233 ± 0.17 kcal/mol | 2.02 ± 0.1 kcal/mol | 1.37 ± 0.21 kcal/mol |
| SAGGVPLLSAELLTTDETGNRTYRLVYYDPSTGKVYEVVVSQPFPTGDFNPFLFTASSLEEALELVTSSAGG [r13_26_TrMRF] | 2.81 ± 0.038 kcal/mol | 2.61 ± 0.057 kcal/mol | 2.7 ± 0.038 kcal/mol |
| SAGGWEIVGSITIEHPNRPIIFPVFRDPEEGNVWVSIYRMDPENGKWQPIGVVPFPKGDAEDALDDISAGGS [r8_423_TrROS] | 1.86 ± 0.11 kcal/mol | 1.03 ± 0.054 kcal/mol | 1.53 ± 0.16 kcal/mol |
| SAGGWITPELIEEIAKTIAEENPENGKEVPIEVVIPFPNSVIKIEIEFDPSNGKIEIEDIKVIPPNDLSAGG [r13_37_TrROS] | 1.5 ± 0.12 kcal/mol | 0.67 ± 0.12 kcal/mol | 1.16 ± 0.28 kcal/mol |
| SAGGWIWIPPDDPEDAKEWARELVLMFANHMKEQGQEDMTVDVDIHVWDPKDGNWYRIPVEFRVKPDSAGGS [r8_163_TrROS] | 2.31 ± 0.12 kcal/mol | 1.97 ± 0.044 kcal/mol | 2.19 ± 0.13 kcal/mol |
| SAGGWRYILRQIREAAKNGEEVTINFPPGMNPSFLLSWIRKENGAEVKPITVKPNPNGYGTINIKVKSAGGS [r16_318_TrROS] | 2.02 ± 0.057 kcal/mol | 1.39 ± 0.054 kcal/mol | 1.8 ± 0.073 kcal/mol |
| SAGGWTIREILEKNPNLREFAKEGWTIEIYYPNGKSGRVKIKEGSADDILDDINKNFPGPVEISITKSAGGS [r16_655_TrROS] | 0.437 ± 0.23 kcal/mol | 0.659 ± 0.072 kcal/mol | 0.573 ± 0.14 kcal/mol |
| SAGGYELELVFRFKLELKVGDGTLSFDLDLVIRIPLEPPAVPIGVEVKEDGSLVLTYPNGLKAEIPLSAGGS [r16_136_TrMRF] | 4.21 ± 0.06 kcal/mol | 3.32 ± 0.14 kcal/mol | 3.93 ± 0.087 kcal/mol |
